# B1: HLX10, fully humanized IgG4 monoclonal antibody against PD-1 receptor (antibody, V domains shown)
# VH: QVQLVESGGGLVKPGGSLRLSCAASGFTFSNYGMSWIRQAPGKGLEWVSTISGGGSNIYYADSVKGRFTISRDNAKNSLYLQMNSLRAEDTAVYYCVSYYYGIDFWGQGTSVTVSS
# VL: DIQMTQSPSSLSASVGDRVTITCKASQDVTTAVAWYQQKPGKAPKLLIYWASTRHTGVPSRFSGSGSGTDFTLTISSLQPEDFATYYCQQHYTIPWTFGGGTKLEIK
# notes: humanized VH (CDRs of chimeric c1G4 grafted on human germline IGHV3-11*04) on a human IgG4 constant region; humanized VL (CDRs of chimeric c1G4 grafted on human germline IGKV1-39*01); IgG4, hinge-stabilized; the PDB entry holds the Fab only; also called h1G4; hIG4
# Key:
# [1] = molecular target: T1, human PD-1 expressed on PD-1 transfected CHO-S cells (human, UniProt Q15116); assay: flow cytometry on cells; competition: PD-1-transfected CHO-S cells with serial diluted antibody and 5 μg/mL biotin-labeled PD-L1, 4°C, 30 minutes; streptavidin-PE; settings: one partner purified
# T1 construct: human PD-1 on the surface of transfected CHO-S cells; also called cell-surface expressed PD-1; membrane PD-1; source: CHO-S, transfected, on cells
# [2] = molecular target: T2, human PD-1 (recombinant; construct not stated for this experiment) (Homo sapiens, UniProt Q15116); assay: SPR; format not told in the text shown (S1 Fig b, c); settings: both partners purified
# T2 construct: human PD-1; the ELISA and the SPR may have used different ones; SPR methods may stand in S1 File
# [3] = molecular target: T1, human PD-1 expressed on PD-1 …; assay: flow cytometry on cells; competition: PD-1-transfected CHO-S cells with serial diluted antibody and 0.5 μg/mL biotin-labeled PD-L2, 4°C, 30 minutes; streptavidin-PE; settings: one partner purified
# [4] = molecular target: T3, recombinant cynomolgus monkey PD-1 His tag (Macaca fascicularis (cynomolgus monkey), UniProt B0LAJ3); assay: BLI; Octet Red96; antibodies (5 μg/ml) captured on protein A biosensor tips; serial dilution of PD-1 as analyte, 120 sec association, 300 sec dissociation; HBS-EP+ pH 7.4, 25°C, 1000 rpm; global 1:1 fit; apparent constants; settings: both partners purified
# T3 construct: cynomolgus monkey PD-1 extracellular domain; also called cynomolgus PD-1; source: bought: R&D Systems
# mouse PD-1-ECD-Fc = molecular target: T4, mouse PD-1-ECD-Fc (Mus musculus, UniProt Q02242); assay: ELISA; PD-1-Fc proteins (9 ng per well) immobilized on 96-well plate overnight at 4°C; serial diluted HLX10, one hour at room temperature; detected with peroxidase-labeled goat anti-human IgG F(ab)'2; settings: both partners purified
# T4 construct: mouse PD-1 extracellular domain; also called murine PD-1; source: bought: Sino Biological Inc
# rat PD-1 ECD-Fc = molecular target: T5, rat PD-1 ECD-Fc (Rattus norvegicus, UniProt D3ZIN8); assay: as above; settings: both partners purified
# T5 construct: rat PD-1 extracellular domain; also called murine PD-1; source: bought: Sino Biological Inc
binder,measurement,setting,value
B1,IC50,[1],4.36 nM
same,Kd,[2],0.32 nM
same,IC50,[3],6.46 nM
same,Kd,[4],4.78 ± 0.16 nM
same,koff,[4],0.000745 s⁻¹
same,kon,[4],153000 M⁻¹ s⁻¹
same,binding result,mouse PD-1-ECD-Fc,no binding
same,binding result,rat PD-1 ECD-Fc,no binding
